The values that follow come from doi:10.1101/2023.08.29.555277.

In assay [1] the target is microtubules polymerised from porcine Tubulin (porcine) (UniProt P02550). Put plainly: co-sedimentation.
Assay [2] addresses F-actin (polymerised purified rabbit skeletal G-actin) (rabbit) (UniProt P68135). Put plainly: co-sedimentation.

Sequence of UniProt P02550 (P02550 whole entry, looked up): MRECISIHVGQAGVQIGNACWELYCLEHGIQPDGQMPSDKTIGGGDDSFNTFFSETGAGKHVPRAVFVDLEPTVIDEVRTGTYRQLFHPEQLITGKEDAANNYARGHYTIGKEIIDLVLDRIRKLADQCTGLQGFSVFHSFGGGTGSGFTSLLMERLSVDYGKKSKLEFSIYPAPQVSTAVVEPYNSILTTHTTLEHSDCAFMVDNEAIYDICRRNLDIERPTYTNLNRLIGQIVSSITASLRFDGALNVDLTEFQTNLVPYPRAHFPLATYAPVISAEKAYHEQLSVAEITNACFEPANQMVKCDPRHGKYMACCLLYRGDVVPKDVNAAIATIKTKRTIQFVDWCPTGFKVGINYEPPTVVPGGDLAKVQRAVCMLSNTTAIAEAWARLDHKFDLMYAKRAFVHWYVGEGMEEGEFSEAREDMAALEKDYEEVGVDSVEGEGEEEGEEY

On to “endogenous HTT of mouse developing cortex (from UniProt P42859 1-3119) (natural protein)”, for which, in assay [1], the amount of HTT in the pellet with microtubules turned out to be 1.18.
Regarding “endogenous HTT of mouse developing cortex, P42859 1-3119”, the amount of HTT in the pellet with F-actin in assay [2] (remark: other sources report otherwise) amounted to 1.07.
“HTT fragment containing the Bridge to C_HEAT domains (B-C_HEAT; 1887 to 3144 a.a.) (domain or fragment)” showed a Pellet/Supernatant with F-actin in assay [2] of 1.57.
The same measure, in the same setting: the result for “HTT Bridge domain tagged with GST (GST-B: 1887-2098 a.a.) (domain or fragment)” reads 1.6.
By Kd is commonly meant a measure of binding affinity in units of concentration. In assay [2], “purified human full-length (FL) wild-type HTT (23 glutamines) (from UniProt P42858 1-3142) (natural protein)” registered a Kd of 357 nM and a Pellet/Supernatant with F-actin of 1.05.
